This passage reports Kd results from publication PMC8041205 (2021).

This assay concerns the target BSA. In words: ITC.

B1: UBE2D1 (R&D) (enzyme)
chain: not shown
Take B1: the Kd is more than 10 mM.
